experiment: soluble on expression in E. coli; label from the status in PepcDB or PDB records

Sequence | soluble on expression in E. coli
MLLQANRGLGLSAHIIDHCNLILKFPEGTNSTWYNAQFKVFEALEFKYNVCEAVLLWEQYRNMTTVLTREYLDVRPDGWLDYAAMRIAQLGADKCYNRTLCEEHLNVILPAKPPFHPRQFHKCAVVGNSGDLLKTEFGEEIDSHDAVFRDNEAPVNEKYAKYVGVKRDFRLVVRGAARNMIKILNGSDNEVLIIKSVTHRDFNEMIKRIPNPVYLFQGIVLRRGAKGTGMKSIELALSMCDIVDIYGFTVDPGYTEWTRYFSTPRKGHNPLQGRAYYQLLECLGVQITC | not soluble
MSLAEYKHILVGVDGSRQAKRALDKAIAVALRNQAELIIVTIMSGGDYVGLGNNTQVGFGYVDQQVMDESRQALEALVDQYRQKAQEAGVERVVTSVFYGHAKVDLAKSLPKEYQADLIMLGATGVNVVERMLLGSTASYVVANAVCDVLVVRTDLHNEGHHHHHH | soluble
MAEAKQWDVKQLDRIVEKMIDTVQHSKDEIFRIGEQSRQEHDHLLRELEEVKRLTVQAIEEADQLEMKARQARRRLSEVSQNFSTHSEQDIREAYEQAHELHMKLTMVREREKQLRLRRDELERRLASLAQIIERADYLVGQITVVLHYLNSDFRQVGELIEGAKQKQEFGLKIIEAQEEERRRLSREIHDGPAQLLAHVLLRSDLVEKVIKERGTEAAIAEIRDFRKMVRSALSEVRRIIYDLRPMALDDLGLVPTLKKYLQTTEEYNKGVHISFVHIGEEIRLPSRMEAAVFRLVQESVQNALKHAEARHIDVKMEVTCDHLLVSVKDDGKGFDPSVKKENAFGLIGMRERVELLGGTLDIRSKIGSGTTVFIRVPLDRSTDKTNKEERKR | not soluble
MGSDKIHHHHHHDDDIIGALLEGKMPQATPVPPPTTVAATVASIDPPALKPAVDPRWVHLHNVHTGEKLEAVYWENGDYVPDAVSALDKVLRDYRNDEVHPIDRGLYDLLDQIARKTQSKGPFQVISGYRSPATNRLLSKRSGEVAKKSLHMDGKAMDIFLEDVELKHVRAAALDLSVGGVGYYPTSNFVHVDVGPVRKWTGT | not soluble
MTGQTVECIRSAGVVGAGGAGLPTHIKADASVDTVLVNGASCEPLLMSDPYLIQAHPDIVIRGLLAVMDCTGARRGIICLKGKHAAAMAAVRGAVTREGSGRLEVFELRDFYPAGDEHVLVHEVLGRTVPQGGIPLQIGAVVSNVETLYNVALAMEGAPVTHRYVTVSGEVKRHMVVKVPVGTLVSDVLTFAGGPAITEYKVVDGGPMMGRVLPHTGRPVTKTTSGLLVLPPDHTVVARKIMDPEKVRRITTSICCQCSHCTDLCPRNLLGHSLHPHRLMRVLEGQMHAGTVAREALLCSECGLCEKFACPMMVSPREINAQIKQVLRREGVRWESTGEEPVPHPFRKSRYVATGRLLRRLDLVQYDTHPGYAGEYTPHMVRIPLAQHIGAPAVCVVAPGDTVRTGDLIGEIPEKSMGARVHASISGRVESVEDGMVTIKAC | not soluble
SLQIKKLFIALGIVLPLHMQGQNFLIKDAPEVIESYVNQFNREDNELYKQDIPNCGASDFLRKNIPFFECPDKELEKTYYFRWWTYRKHIKKTPDGFVITEFLPDVPWSGKYNTISCAANHHFYEGRWLRNAEILSDYASFWFSGSGNPRLYSFGAADAIYNYYLIHNDKMLLADLYPKLKDNFAKWEEEKRDSTGMFWQVDDRDGMEMSVSGHLSEGGRGYRPTINSYMYGEAVALAKIASIVDRDMEARTYQKKADKLKGIINRRLWDKQADFYKVIPLNGKMEFSYARELLGYIPWFYNIPPDNYSIAWKQLFDSKGFEAAYGPTTVEQRCPDFKISYEGHECQWNGPSWPYLTSMTLAAMANYFNSYDSPIITKKDYLSLLNIYSNSHRILSVNNDTICWIDENINPYTGDWISRTRLKSWKNGTWDDSKGGVERGKDYNHSSFCNLIISGLMGVRPQEDGSIIINPLVPDGCWDYFCLDNVYCQGKTITIIFDKKGKKYGRGKGFIVYVDDKCLSHTTRVQKVVIR | not soluble
MAKTLKTLYQCTECGGTSPKWQGKCPHCGEWNTLQESLAAPEPKNARFQSWAADTSTVQSLSAVTATEVPRNPTGMGELDRVLGGGLVDGAVILLGGDPGIGKSTLLLQTIAKMAQSRKVLYVSGEESAQQVALRAQRLELPTDGVNLLAEIRMEAIQAALKQHQPEVVVIDSIQTMYSDQITSAPGSVSQVRECAAQLTRMAKQMGIAMILVGHVTKDGAIAGPRVLEHMVDTVLYFEGDQHSNYRMIRAIKNRFGAANELGVFAMTENGLKGVSNPSAIFLASYRDDTPGSCVLVTQEGSRPLLVEIQALVDDAHGFTPKRLTVGLEQNRLAMLLAVLNRHGGIACFDQDVFLNAVGGV | not soluble

Source: the DeepSol protein solubility set
